US20220409725A1

Molecular target: HER2 (UniProt P04626)
Test: SPR

Kd: 0.75 nM
Substance: 4D5 Fab modified to contain Q39E in VH, Q38K in VL, S183K in the CH1, and V133E in the CL
